Reference: paper PMC5748837, “Biochemical characterization of INTS3 and C9ORF80, two subunits of hNABP1/2 heterotrimeric complex in nucleic acid binding”

Legend:
Test in all cases: EMSA; EMSA: 20 mM HEPES pH 7.3, 100 mM KCl, 1 mM MgCl2, 1 mg/ml BSA, 1 mM DTT, 6% glycerol, 0.5 nM 32P substrate, 30 min on ice; 5% native PAGE, 1x TBE, 4°C
INTS3FL = INTS3FL (human, UniProt Q68E01-2 1-1042); details: protein: recombinant, tags: GST cleaved (PreScission)
hNABP2 (hSSB1) = hNABP2 (hSSB1) (human, UniProt Q9BQ15 1-211); details: protein: recombinant; tags: His; label: 5'-32P
Chain of hNABP2 (hSSB1) (Q9BQ15 whole entry): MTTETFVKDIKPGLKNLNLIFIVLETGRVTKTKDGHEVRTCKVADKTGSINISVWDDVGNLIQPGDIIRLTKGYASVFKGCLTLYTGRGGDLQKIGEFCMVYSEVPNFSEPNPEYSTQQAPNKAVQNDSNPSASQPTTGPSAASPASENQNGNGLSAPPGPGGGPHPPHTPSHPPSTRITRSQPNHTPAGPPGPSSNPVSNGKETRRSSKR

INTS3C = INTS3C (human, UniProt Q68E01-2 514-1042); details: protein: recombinant, tags: His (pET28a), label: 5'-32P
Chain of INTS3C (Q68E01 515-1043): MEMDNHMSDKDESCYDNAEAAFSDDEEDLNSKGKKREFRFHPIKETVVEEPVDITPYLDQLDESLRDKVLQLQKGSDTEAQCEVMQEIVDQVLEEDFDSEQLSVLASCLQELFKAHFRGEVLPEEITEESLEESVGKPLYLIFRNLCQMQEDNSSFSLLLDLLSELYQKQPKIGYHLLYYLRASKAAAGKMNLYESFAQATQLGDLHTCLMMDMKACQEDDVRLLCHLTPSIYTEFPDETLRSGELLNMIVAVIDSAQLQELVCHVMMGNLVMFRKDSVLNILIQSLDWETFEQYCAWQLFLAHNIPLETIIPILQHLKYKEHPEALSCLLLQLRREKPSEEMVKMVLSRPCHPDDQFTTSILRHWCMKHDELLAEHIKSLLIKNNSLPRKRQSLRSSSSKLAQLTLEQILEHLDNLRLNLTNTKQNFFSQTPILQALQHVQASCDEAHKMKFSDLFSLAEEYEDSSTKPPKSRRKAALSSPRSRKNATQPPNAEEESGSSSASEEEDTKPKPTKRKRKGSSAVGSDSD

[1] = target: INTS3FL in co-expressed complex;hNABP2 (hSSB1);C9ORF80 (human;human;human, UniProt Q68E01-2;Q9BQ15;Q9NRY2 1-1042;1-211;1-104, ||); details: protein: recombinant;recombinant;recombinant; tags: GST (pGEX-6P-1); copies: 1;1;1; label: 5'-32P
Chain of INTS3FL in co-expressed complex;hNABP2 (hSSB1);C9ORF80 (Q68E01 other isoform, or with tags, fused parts or gaps ||, chain 1 of 2): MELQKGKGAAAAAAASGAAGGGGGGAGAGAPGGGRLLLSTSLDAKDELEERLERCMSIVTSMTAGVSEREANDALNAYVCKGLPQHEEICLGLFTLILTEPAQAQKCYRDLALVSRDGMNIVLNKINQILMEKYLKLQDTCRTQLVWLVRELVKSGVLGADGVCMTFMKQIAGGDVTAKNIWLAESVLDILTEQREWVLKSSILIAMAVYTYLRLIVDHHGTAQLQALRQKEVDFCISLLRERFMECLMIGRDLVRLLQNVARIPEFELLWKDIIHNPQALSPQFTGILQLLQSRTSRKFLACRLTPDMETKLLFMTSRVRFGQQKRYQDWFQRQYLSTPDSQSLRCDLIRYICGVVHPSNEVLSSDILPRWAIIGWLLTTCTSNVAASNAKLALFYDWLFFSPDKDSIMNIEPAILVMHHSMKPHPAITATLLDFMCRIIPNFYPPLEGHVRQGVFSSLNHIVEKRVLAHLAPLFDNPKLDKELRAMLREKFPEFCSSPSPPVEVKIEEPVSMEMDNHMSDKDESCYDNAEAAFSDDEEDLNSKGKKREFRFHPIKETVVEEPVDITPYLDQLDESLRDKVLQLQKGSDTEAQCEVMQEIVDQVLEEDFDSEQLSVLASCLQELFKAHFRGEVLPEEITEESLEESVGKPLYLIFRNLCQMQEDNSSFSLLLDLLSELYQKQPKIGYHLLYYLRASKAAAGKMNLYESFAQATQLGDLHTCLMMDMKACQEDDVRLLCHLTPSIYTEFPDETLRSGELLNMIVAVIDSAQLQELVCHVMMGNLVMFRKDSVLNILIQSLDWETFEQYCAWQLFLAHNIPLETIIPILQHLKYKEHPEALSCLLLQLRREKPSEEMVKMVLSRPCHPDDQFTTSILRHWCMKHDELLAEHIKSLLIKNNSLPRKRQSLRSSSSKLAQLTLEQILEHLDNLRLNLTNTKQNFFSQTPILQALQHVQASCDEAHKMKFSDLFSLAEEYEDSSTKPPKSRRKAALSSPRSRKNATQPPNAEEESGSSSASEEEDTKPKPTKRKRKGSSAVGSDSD
Chain of INTS3FL in co-expressed complex;hNABP2 (hSSB1);C9ORF80 (Q9BQ15 whole entry, chain 2 of 2): as the sequence (Q9BQ15 whole entry) above

C9ORF80 = target: T1, C9ORF80 (human, UniProt Q9NRY2 1-104); details: protein: recombinant, tags: His (pET28a)
T1 sequence: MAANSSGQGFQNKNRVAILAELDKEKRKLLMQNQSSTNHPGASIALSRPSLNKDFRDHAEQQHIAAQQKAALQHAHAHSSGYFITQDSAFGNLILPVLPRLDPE

hNABP1 (hSSB2) = hNABP1 (hSSB2) (human, UniProt Q96AH0 1-204); details: protein: recombinant; tags: His; label: 5'-32P
Chain of hNABP1 (hSSB2) (Q96AH0 whole entry): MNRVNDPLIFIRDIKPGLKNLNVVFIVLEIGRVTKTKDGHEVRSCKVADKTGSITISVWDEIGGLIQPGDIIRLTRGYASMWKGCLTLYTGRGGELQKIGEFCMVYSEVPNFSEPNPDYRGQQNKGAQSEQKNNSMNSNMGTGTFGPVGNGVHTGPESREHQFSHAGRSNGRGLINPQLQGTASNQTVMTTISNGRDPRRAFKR

[2] = target: INTS3FL in co-expressed complex;hNABP1 (hSSB2);C9ORF80 (human;human;human, UniProt Q68E01-2;Q96AH0;Q9NRY2 1-1042;1-204;1-104, ||); details: protein: recombinant;recombinant;recombinant; tags: GST (pGEX-6P-1); copies: 1;1;1; label: 5'-32P
Chain of INTS3FL in co-expressed complex;hNABP1 (hSSB2);C9ORF80 (Q68E01 other isoform, or with tags, fused parts or gaps ||, chain 1 of 2): as the sequence (Q68E01 other isoform, or with tags, fused parts or gaps ||, chain 1 of 2) above
Chain of INTS3FL in co-expressed complex;hNABP1 (hSSB2);C9ORF80 (Q96AH0 whole entry, chain 2 of 2): as the sequence (Q96AH0 whole entry) above

[3] = label: 5'-32P on one strand, blunt

Chain of INTS3FL (Q68E01 other isoform, or with tags, fused parts or gaps): as the sequence (Q68E01 other isoform, or with tags, fused parts or gaps ||, chain 1 of 2) above

B1: dT60 (ssDNA)
DNA: TTTTTTTTTTTTTTTTTTTTTTTTTTTTTTTTTTTTTTTTTTTTTTTTTTTTTTTTTTTT
binding result (INTS3FL; label: 5'-32P): binds

B2: DNA 30-mer (random) (ssDNA)
DNA: GAGCTACCAGCTACCCCGTATGTCAGAGAG
Kd (INTS3FL; label: 5'-32P): 13 ± 0.8 µM

B3: rU30 (ssRNA)
RNA: UUUUUUUUUUUUUUUUUUUUUUUUUUUUUU
Kd (INTS3FL; label: 5'-32P): 5.6 ± 1.2 µM
Kd (hNABP2 (hSSB1)): 0.06 ± 0.02 µM
Kd (INTS3C; chain copies: 2): 1.2 ± 0.8 µM
Kd [1]: 0.5 ± 0.07 µM

B4: DNA:RNA hybrid 30-mer (DNA:RNA)
DNA: B2 DNA
RNA: CUCUCUGACAUACGGGGUAGCUGGUAGCUC
binding result (INTS3FL; [3]): no binding
binding result (C9ORF80; [3]): no binding

B5: DNA 60-mer (random) (ssDNA)
DNA: ACGCAGTTGAGTATTCTACAGAGTTGGCGTGAGCTACCAGCTACCCCGTATGTCAGAGAG
Kd (INTS3FL; label: 5'-32P): 6.4 ± 0.9 µM

B6: dsRNA 30-mer (dsRNA)
RNA 1: GAGCUACCAGCUACCCCGUAUGUCAGAGAG
RNA 2: B4 RNA
binding result (INTS3FL; [3]): no binding
binding result (C9ORF80; [3]): no binding

B7: dT90 (ssDNA)
DNA: TTTTTTTTTTTTTTTTTTTTTTTTTTTTTTTTTTTTTTTTTTTTTTTTTTTTTTTTTTTTTTTTTTTTTTTTTTTTTTTTTTTTTTTTTT
binding result (INTS3FL; label: 5'-32P): binds
binding result (C9ORF80; label: 5'-32P): binds

B8: dT30 (ssDNA)
DNA: TTTTTTTTTTTTTTTTTTTTTTTTTTTTTT
Kd (C9ORF80; label: 5'-32P): 13.2 ± 1.2 µM
Kd (hNABP1 (hSSB2)): 0.15 ± 0.04 µM
Kd [2]: 0.6 ± 0.09 µM
Kd (INTS3C): 7.2 ± 1.2 µM
